In paper PMC2946090 (Nature, 2010):

Target: the molecule itself
Test: crystal structure

B1: CusA efflux pump (full-length CusA membrane protein with a 6xHis tag at the N-terminus) (natural protein, E. coli, UniProt P38054 1-1047, looked up)
chain: MIEWIIRRSVANRFLVLMGALFLSIWGTWTIINTPVDALPDLSDVQVIIKTSYPGQAPQIVENQVTYPLTTTMLSVPGAKTVRGFSQFGDSYVYVIFEDGTDPYWARSRVLEYLNQVQGKLPAGVSAELGPDATGVGWIYEYALVDRSGKHDLADLRSLQDWFLKYELKTIPDVAEVASVGGVVKEYQVVIDPQRLAQYGISLAEVKSALDASNQEAGGSSIELAEAEYMVRASGYLQTLDDFNHIVLKASENGVPVYLRDVAKVQIGPEMRRGIAELNGEGEVAGGVVILRSGKNAREVIAAVKDKLETLKSSLPEGVEIVTTYDRSQLIDRAIDNLSGKLLEEFIVVAVVCALFLWHVRSALVAIISLPLGLCIAFIVMHFQGLNANIMSLGGIAIAVGAMVDAAIVMIENAHKRLEEWQHQHPDATLDNKTRWQVITDASVEVGPALFISLLIITLSFIPIFTLEGQEGRLFGPLAFTKTYAMAGAALLAIVVIPILMGYWIRGKIPPESSNPLNRFLIRVYHPLLLKVLHWPKTTLLVAALSVLTVLWPLNKVGGEFLPQINEGDLLYMPSTLPGISAAEAASMLQKTDKLIMSVPEVARVFGKTGKAETATDSAPLEMVETTIQLKPQEQWRPGMTMDKIIEELDNTVRLPGLANLWVPPIRNRIDMLSTGIKSPIGIKVSGTVLADIDAMAEQIEEVARTVPGVASALAERLEGGRYINVEINREKAARYGMTVADVQLFVTSAVGGAMVGETVEGIARYPINLRYPQSWRDSPQALRQLPILTPMKQQITLADVADIKVSTGPSMLKTENARPTSWIYIDARDRDMVSVVHDLQKAIAEKVQLKPGTSVAFSGQFELLERANHKLKLMVPMTLMIIFVLLYLAFRRVGEALLIISSVPFALVGGIWLLWWMGFHLSVATGTGFIALAGVAAEFGVVMLMYLRHAIEAVPSLNNPQTFSEQKLDEALYHGAVLRVRPKAMTVAVIIAGLLPILWGTGAGSEVMSRIAAPMIGGMITAPLLSLFIIPAAYKLMWLHRHRVRK
stoichiometry N: 3
